According to patent US20210388110A1:

Target: extracellular matrix (BD Matrigel)
Experiment: ECL on Matrigel-coated plate, relative to MRAH-G1d/MRAL-k0

ECM binding ratio (standard = 1) | Binder
0.8 | TR01H040-E2702GsKsc/H0610-E2704sEpsc/L0203-k0 (bispecific antibody, human IgG4 S228P, kappa, N297A) heavy 1: QVQLVESGGGLVQPGRSLRLSCAASGFTFSNAWMHWVRQAPGKGLEWVAQIKDKSQNYATYYAESVKGRFTISRADSKNSIYLQMNSLKTEDTAVYYCRYVHYSASYGVDAWGQGTTVTVSSASTKGPSVFPLAPCSRSTSESTAALGCLVKDYFPEPVTVSWNSGALTSGVHTFPAVLQSSGLYSLSSVVTVPSSSLGTKTYTCNVDHKPSNTKVDKRVESKYGPPCPPCPAPEFRGGPKVFLFPPKPKDTLMISRTPEVTCVVVDVSQEDPEVQFNWYVDGVEVHNAKTKPREEQFASTYRVVSVLTVLHQDWLNGKEYKCKVSNKGLPSSIEKTISKAKGQPREPQVYTLPPSQKEMTKNQVSLTCLVKGFYPSDIAVEWESNGQPENNYKTTPPVLDSDGSFFLYSKLTVDKSRWQEGNVFSCSVMHEALHNRYTQKSLSLSP heavy 2: QVQLVQSGAEVKKPGASVKVSCKASGYTFTDYEMHWIRQPPGQGLEWIGAIDGKTPDTAYSQKFKGRVTLTADKSTSTAYMELSSLTSEDTAVYYCTRFYSYTYWGQGTLVTVSSASTKGPSVFPLAPCSRSTSESTAALGCLVKDYFPEPVTVSWNSGALTSGVHTFPAVLQSSGLYSLSSVVTVPSSSLGTQTYTCNVDHKPSNTKVDKRVESKYGPPCPPCPAPEFRGGPKVFLFPPKPKDTLMISRTPEVTCVVVDVSQEDPEVQFNWYVDGVEVHNAKTKPREEQFASTYRVVSVLTVLHQDWLNGKEYKCKVSNKGLPSSIEKTISKAKGQPREPQVYTLPPSQEEMTKNQVSLTCLVKGFYPSDIAVEWESNGQPENNYKTTPPVLDSDGSFFLYSKLTVDKSRWQEGNVFSCSVMHEALHNHYTQESLSLSP light: DIVMTQSPLSLPVTPGEPASISCRSSQSPVHSNRNTYIHWYQQKPGQAPRLLIYKVSNRFSGVPDRFSGSGSGTDFTLKISRVEAEDVGVYYCGQGTQVPYTFGQGTKLEIKRTVAAPSVFIFPPSDEQLKSGTASVVCLLNNFYPREAKVQWKVDNALQSGNSQESVTEQDSKDSTYSLSSTLTLSKADYEKHKVYACEVTHQGLSSPVTKSFNRGEC
0.7 | TR01H082-E2702GsKsc/GCH094-E2704sEpsc/L0011-k0 (bispecific antibody, human IgG4 S228P, kappa, N297A) heavy 1: QVQLVESGGGLVQPGRSLRLSCAASGFTFSNAWMHWVRQAPGKGLEWVAQIKDKSQNYATYYAESVKGRFTISRDDSKNSLYLQMNSLKTEDTAVYYCRYVHYAAGYGVDAWGQGTTVTVSSASTKGPSVFPLAPCSRSTSESTAALGCLVKDYFPEPVTVSWNSGALTSGVHTFPAVLQSSGLYSLSSVVTVPSSSLGTKTYTCNVDHKPSNTKVDKRVESKYGPPCPPCPAPEFRGGPKVFLFPPKPKDTLMISRTPEVTCVVVDVSQEDPEVQFNWYVDGVEVHNAKTKPREEQFASTYRVVSVLTVLHQDWLNGKEYKCKVSNKGLPSSIEKTISKAKGQPREPQVYTLPPSQKEMTKNQVSLTCLVKGFYPSDIAVEWESNGQPENNYKTTPPVLDSDGSFFLYSKLTVDKSRWQEGNVFSCSVMHEALHNRYTQKSLSLSP heavy 2: QVQLVQSGAEVKKPGASVTVSCKASGYTFTDYEMHWVRQAPGEGLEWMGAIDGETPDTAYSEKFKGRVTLTADKSTSTAYMELSSLTSEDTAVYYCTRFYSYTYWGQGTLVTVSSASTKGPSVFPLAPCSRSTSESTAALGCLVKDYFPEPVTVSWNSGALTSGVHTFPAVLQSSGLYSLSSVVTVPSSSLGTQTYTCNVDHKPSNTKVDKRVESKYGPPCPPCPAPEFRGGPKVFLFPPKPKDTLMISRTPEVTCVVVDVSQEDPEVQFNWYVDGVEVHNAKTKPREEQFASTYRVVSVLTVLHQDWLNGKEYKCKVSNKGLPSSIEKTISKAKGQPREPQVYTLPPSQEEMTKNQVSLTCLVKGFYPSDIAVEWESNGQPENNYKTTPPVLDSDGSFFLYSKLTVDKSRWQEGNVFSCSVMHEALHNHYTQESLSLSP light: DIVMTQSPLSLPVTPGEPASISCRSSQPLVHSNRNTYLHWYQQKPGQAPRLLIYKVSNRFSGVPDRFSGSGSGTDFTLKISRVEAEDVGVYYCGQGTQVPYTFGQGTKLEIKRTVAAPSVFIFPPSDEQLKSGTASVVCLLNNFYPREAKVQWKVDNALQSGNSQESVTEQDSKDSTYSLSSTLTLSKADYEKHKVYACEVTHQGLSSPVTKSFNRGEC
0.7 | TR01H109-E2702GsKsc/GCH065-E2704sEpsc/L0011-k0 (bispecific antibody, human IgG4 S228P, kappa, N297A) heavy 1: QVQLVESGGGLVQPGRSLRLSCAASGFTFSNAWMHWVRQAPGKGLEWVAQIKDKSQNYATYVAESVKGRFTISRDDSKNSLYLQMNSLKTEDTAVYYCRYVHYAAGYGVDAWGQGTTVTVSSASTKGPSVFPLAPCSRSTSESTAALGCLVKDYFPEPVTVSWNSGALTSGVHTFPAVLQSSGLYSLSSVVTVPSSSLGTKTYTCNVDHKPSNTKVDKRVESKYGPPCPPCPAPEFRGGPKVFLFPPKPKDTLMISRTPEVTCVVVDVSQEDPEVQFNWYVDGVEVHNAKTKPREEQFASTYRVVSVLTVLHQDWLNGKEYKCKVSNKGLPSSIEKTISKAKGQPREPQVYTLPPSQKEMTKNQVSLTCLVKGFYPSDIAVEWESNGQPENNYKTTPPVLDSDGSFFLYSKLTVDKSRWQEGNVFSCSVMHEALHNRYTQKSLSLSP heavy 2: QVQLVQSGAEVKKPGASVTVSCKASGYTFTDYEMHWIRQPPGEGLEWIGAIDGPTPDTAYSEKFKGRVTLTADKSTSTAYMELSSLTSEDTAVYYCTRFYSYTYWGQGTLVTVSSASTKGPSVFPLAPCSRSTSESTAALGCLVKDYFPEPVTVSWNSGALTSGVHTFPAVLQSSGLYSLSSVVTVPSSSLGTQTYTCNVDHKPSNTKVDKRVESKYGPPCPPCPAPEFRGGPKVFLFPPKPKDTLMISRTPEVTCVVVDVSQEDPEVQFNWYVDGVEVHNAKTKPREEQFASTYRVVSVLTVLHQDWLNGKEYKCKVSNKGLPSSIEKTISKAKGQPREPQVYTLPPSQEEMTKNQVSLTCLVKGFYPSDIAVEWESNGQPENNYKTTPPVLDSDGSFFLYSKLTVDKSRWQEGNVFSCSVMHEALHNHYTQESLSLSP light: DIVMTQSPLSLPVTPGEPASISCRSSQPLVHSNRNTYLHWYQQKPGQAPRLLIYKVSNRFSGVPDRFSGSGSGTDFTLKISRVEAEDVGVYYCGQGTQVPYTFGQGTKLEIKRTVAAPSVFIFPPSDEQLKSGTASVVCLLNNFYPREAKVQWKVDNALQSGNSQESVTEQDSKDSTYSLSSTLTLSKADYEKHKVYACEVTHQGLSSPVTKSFNRGEC
0.6 | TR01H067-E2702GsKsc/GCH054-E2704sEpsc/L0222-k0 (bispecific antibody, human IgG4 S228P, kappa, N297A) heavy 1: QVQLVESGGGLVQPGRSLRLSCAASGFTFSNAWMHWVRQAPGKGLEWVAQIKDKSQNYATYYAESVKGRFTISRDDSKNSLYLQMNSLKTEDTAVYYCRYVHYAASYGVDAWGQGTTVTVSSASTKGPSVFPLAPCSRSTSESTAALGCLVKDYFPEPVTVSWNSGALTSGVHTFPAVLQSSGLYSLSSVVTVPSSSLGTKTYTCNVDHKPSNTKVDKRVESKYGPPCPPCPAPEFRGGPKVFLFPPKPKDTLMISRTPEVTCVVVDVSQEDPEVQFNWYVDGVEVHNAKTKPREEQFASTYRVVSVLTVLHQDWLNGKEYKCKVSNKGLPSSIEKTISKAKGQPREPQVYTLPPSQKEMTKNQVSLTCLVKGFYPSDIAVEWESNGQPENNYKTTPPVLDSDGSFFLYSKLTVDKSRWQEGNVFSCSVMHEALHNRYTQKSLSLSP heavy 2: QVQLVQSGAEVKKPGASVTVSCKASGYTFTDYEMHWIRQPPGEGLEWIGAIDGETPDTAYSEKFKGRVTLTADKSTSTAYMELSSLTSEDTAVYYCTRFYSYTYWGQGTLVTVSSASTKGPSVFPLAPCSRSTSESTAALGCLVKDYFPEPVTVSWNSGALTSGVHTFPAVLQSSGLYSLSSVVTVPSSSLGTQTYTCNVDHKPSNTKVDKRVESKYGPPCPPCPAPEFRGGPKVFLFPPKPKDTLMISRTPEVTCVVVDVSQEDPEVQFNWYVDGVEVHNAKTKPREEQFASTYRVVSVLTVLHQDWLNGKEYKCKVSNKGLPSSIEKTISKAKGQPREPQVYTLPPSQEEMTKNQVSLTCLVKGFYPSDIAVEWESNGQPENNYKTTPPVLDSDGSFFLYSKLTVDKSRWQEGNVFSCSVMHEALHNHYTQESLSLSP light: DIVMTQSPLSLPVTPGEPASISCRSSQSPVHSNRNTYIQWYQQKPGQAPRLLIYKVSNRFSGVPDRFSGSGSGTDFTLKISRVEAEDVGVYYCYQGTQVPYTFGQGTKLEIKRTVAAPSVFIFPPSDEQLKSGTASVVCLLNNFYPREAKVQWKVDNALQSGNSQESVTEQDSKDSTYSLSSTLTLSKADYEKHKVYACEVTHQGLSSPVTKSFNRGEC
